The labels stand for the following.
B5: Oxysterol liver X receptor alpha (LXR-alpha), amino acids 95-277, Gal4 DNA-binding-domain fusion (bait) (receptor, UniProt P04386 1-147, looked up)
chain: MKLLSSIEQACDICRLKKLKCSKEKPKCAKCLKNNWECRYSPKTKRSPLTRAHLTEVESRLERLEQLFLLIFPREDLDMILKMDSLQDIKALLTGLFVQDNVNKDAVTDRLASVETDMPLTLRQHRISATSSSEESSNKGQRQLTVSNELCSVCGDKASGFHYNVLSCEGCKGFFRRSVIKGAHYICHSGGHCPMDTYMRRKCQECRLRKCRQAGMREECVLSEEQIRLKKLKRQEEEQAHATSLPPRASSPPQILPQLSPEQLGMIEKLVAAQQQCNRRSFSDRLRVTPWPMAPDPHSREARQQRFAHFTELAIVSVQEIVDFAKQLPG
notes: range 1-147;range 95-277; Bait made by PCR from brain cDNA and expressed in yeast from vector pGBTQ as a C-terminal fusion to Gal4 DBD

Assay [1] deals with B5. Kind of assay: yeast two-hybrid; prey clone identified for the bait of the same row (Ex. 6). From the text:
(§1) A total human brain (person) cDNA library cloned into the yeast expression vector pACT2 was purchased from Clontech (human brain […] cDNA, cat. # HL4004AH), transformed into the yeast strain J692 (genotype of this strain: Mat a, ade2, his3, leu2, trp1, URA3::GAL1-1acZ LYS2::GAL1-HIS3 ga14del ga180del cyhR2), and selected for the ability to drive leucine synthesis. In these yeast cells, each cDNA is expressed as a fusion protein with the transcription activation domain of the transcription factor Ga14 (amino acids 768 to 881) and a 9 amino acid hemagglutinin epitope tag. J693 cells (Mat α type) expressing the bait were then mated with J692 cells ([…]) expressing proteins from the brain library. The resulting diploid yeast cells expressing proteins interacting with the bait protein were selected for the ability to synthesize tryptophan, leucine, histidine, and β-galactosidase. DNA was prepared from each clone, transformed by electroporation into E. coli strain KC8 (Clontech KC8 electrocompetent cells, cat. # C2023-1), and the cells were selected on ampicillin-containing plates in the absence of either tryptophane (selection for the bait plasmid) or leucine (selection for the brain library plasmid). DNA for both plasmids was prepared and sequenced by di-deoxynucleotide chain termination method. […]

The target in assay [2] is T1, Oxysterol liver X receptor alpha (LXR-alpha), amino acids 156-448, Gal4 DNA-binding-domain fusion (bait) (yeast (Saccharomyces cerevisiae), UniProt P04386 1-147; Q13133 156-447).
T1 construct: range 1-147;range 156-448; Bait expressed in yeast from pGBTQ as a C-terminal fusion to Gal4 DBD
Kind of assay: yeast two-hybrid; prey clone identified for the bait of the same row (Ex. 9).
Description: as §1

The target of assay [3] is T2, Oxysterol liver X receptor alpha (LXR-alpha), amino acids 257-448, Gal4 DNA-binding-domain fusion (bait) (yeast (Saccharomyces cerevisiae), UniProt P04386 1-147; Q13133 257-447).
T2 construct: range 1-147;range 257-448; Bait expressed in yeast from pGBTQ as a C-terminal fusion to Gal4 DBD
The assay can be described thus: yeast two-hybrid; prey clone identified for the bait of the same row (Ex. 8).
Description: as §1

Assay [4] has as its target T1, Oxysterol liver X receptor alpha …. The assay can be described thus: yeast two-hybrid; prey clone identified for the bait of the same row (Ex. 12).
Description: as §1

Assay [5] addresses T3, zyxin, amino acids 323-572, Gal4 activation-domain fusion (prey clone) (yeast (Saccharomyces cerevisiae); human, UniProt P04386 768-881; Q15942 323-572).
T3 construct: range 768-881;range 323-572; Clone from the human brain cDNA library in pACT2
T3 sequence (looked up): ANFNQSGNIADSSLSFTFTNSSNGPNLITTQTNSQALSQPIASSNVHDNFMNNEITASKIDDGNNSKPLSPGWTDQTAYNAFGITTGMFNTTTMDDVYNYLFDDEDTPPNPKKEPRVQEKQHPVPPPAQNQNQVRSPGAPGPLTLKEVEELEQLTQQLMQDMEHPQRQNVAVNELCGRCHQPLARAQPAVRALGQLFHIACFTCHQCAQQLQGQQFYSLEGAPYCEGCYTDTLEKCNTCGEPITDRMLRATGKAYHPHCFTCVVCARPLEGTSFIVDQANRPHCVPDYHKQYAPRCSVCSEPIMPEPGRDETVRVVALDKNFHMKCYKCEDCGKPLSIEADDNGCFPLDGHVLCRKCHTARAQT
The assay can be described thus: yeast two-hybrid; prey clone identified for the bait of the same row (Ex. 4).
Description: as §1

In assay [6] the target is T4, PSMD11, amino acids 87-422, Gal4 activation-domain fusion (prey clone) (yeast (Saccharomyces cerevisiae); human, UniProt P04386 768-881; O00231 87-422).
T4 construct: range 768-881;range 87-422; Clone from the human brain cDNA library in pACT2; also called proteasome subunit PSMD11
The assay can be described thus: yeast two-hybrid; prey clone identified for the bait of the same row (Ex. 10).
Description: as §1

B1: Homer-3, amino acids 182-354, Gal4 activation-domain fusion (prey clone) (other, yeast (Saccharomyces cerevisiae);human, UniProt P04386 768-881, looked up, not shown: small tags and cut ends)
chain: ANFNQSGNIADSSLSFTFTNSSNGPNLITTQTNSQALSQPIASSNVHDNFMNNEITASKIDDGNNSKPLSPGWTDQTAYNAFGITTGMFNTTTMDDVYNYLFDDEDTPPNPKKEEVQWEAEFFALQDSNNKLAGALREANAAAAQWRQQLEAQRAEAERLRQRVAELEAQAASEVTPTGEKEGLGQGQSLEQLEALVQTKDQEIQTLKSQTGGPREALEAAEREETQQKVQDLETRNAELEHQLRAMERSLEEARAERERARAEVGRAAQLLDVSLFELSELREGLA
notes: range 768-881;range 182-354; Clone from the human brain cDNA library in pACT2; The printed GenBank number has one digit too many
In the case of B1, the binding result in assay [1] was “binds”.

B2: EIF3S1, amino acids 94-254, Gal4 activation-domain fusion (prey clone) (other, yeast (Saccharomyces cerevisiae);human, UniProt P04386 768-881, looked up, not shown: small tags and cut ends)
chain: ANFNQSGNIADSSLSFTFTNSSNGPNLITTQTNSQALSQPIASSNVHDNFMNNEITASKIDDGNNSKPLSPGWTDQTAYNAFGITTGMFNTTTMDDVYNYLFDDEDTPPNPKKEEIKKRLEEPEEPKVLTPEEQLADKLRLKKLQEESDLELAKETFGVNNAVYGIDAMNPSSRDDFTEFGKLLKDKITQYEKSLYYASFLEVLVRDVCISLEIDDLKKITNSLTVLCSEKQKQEKQSKAKKKKKGVVPGGGLKATMKDDLADYGGYDGGYVQDY
notes: range 768-881;range 94-254; Clone from the human brain cDNA library in pACT2; also called translation initiation factor EIF3S1
Consider B2, for which the binding result in assay [2] and in assay [3] was “binds” in each case.

B3: CIR, amino acids 226-450, Gal4 activation-domain fusion (prey clone) (other, yeast (Saccharomyces cerevisiae);human, UniProt P04386 768-881, looked up, not shown: small tags and cut ends)
chain: ANFNQSGNIADSSLSFTFTNSSNGPNLITTQTNSQALSQPIASSNVHDNFMNNEITASKIDDGNNSKPLSPGWTDQTAYNAFGITTGMFNTTTMDDVYNYLFDDEDTPPNPKKERKLDRLEKKKKKKDRKKKKFQKSRSKHKKHKSSSSSSSSSSSSSSTETSESSSESESNNKEKKIQRKKRKKNKCSGHNNSDSEEKDKSKKRKLHEELSSSHHNREKAKEKPRFLKHESSREDSKWSHSDSDKKSRTHKHSPEKRGSERKEGSSRSHGREERSRRSRSRSPGSYKQRETRKRAQRNPGEEQSRRNDSRSHGTDLYRGEKMYREHPGGTHTKVTQRE
notes: range 768-881;range 226-450; Clone from the human brain cDNA library in pACT2; also called transcription factor CIR
For the molecule B3, the binding result in assay [4] is listed as “binds”.

B4: Oxysterol liver X receptor alpha (LXR-alpha), amino acids 95-156, Gal4 DNA-binding-domain fusion (bait) (receptor, UniProt P04386 1-147, looked up)
chain: MKLLSSIEQACDICRLKKLKCSKEKPKCAKCLKNNWECRYSPKTKRSPLTRAHLTEVESRLERLEQLFLLIFPREDLDMILKMDSLQDIKALLTGLFVQDNVNKDAVTDRLASVETDMPLTLRQHRISATSSSEESSNKGQRQLTVSNELCSVCGDKASGFHYNVLSCEGCKGFFRRSVIKGAHYICHSGGHCPMDTYMRRKCQECRLR
notes: range 1-147;range 95-156; Bait expressed in yeast from pGBTQ as a C-terminal fusion to Gal4 DBD
As to B4, in assay [5], the binding result is on record as “binds”.
As to B5, in assay [6], the binding result is listed as “binds”.
